According to PMC5258196 (Biochemistry, 2016):

Experiments:
[1] = target: GrxS14 (Arabidopsis thaliana) (UniProt Q84Y95); conditions: cited from earlier work
[2] = target: T1, E. coli monothiol glutaredoxin Grx4 (E. coli, UniProt P0AC69 1-115); experiment: ITC
T1 sequence (looked up): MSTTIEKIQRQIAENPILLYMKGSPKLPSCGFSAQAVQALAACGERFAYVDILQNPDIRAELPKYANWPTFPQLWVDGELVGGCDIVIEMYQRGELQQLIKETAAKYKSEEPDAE

[3] = target: T2, S. cerevisiae monothiol glutaredoxin Grx3 (S. cerevisiae, UniProt Q03835 1-250); experiment: ITC
T2 sequence (looked up): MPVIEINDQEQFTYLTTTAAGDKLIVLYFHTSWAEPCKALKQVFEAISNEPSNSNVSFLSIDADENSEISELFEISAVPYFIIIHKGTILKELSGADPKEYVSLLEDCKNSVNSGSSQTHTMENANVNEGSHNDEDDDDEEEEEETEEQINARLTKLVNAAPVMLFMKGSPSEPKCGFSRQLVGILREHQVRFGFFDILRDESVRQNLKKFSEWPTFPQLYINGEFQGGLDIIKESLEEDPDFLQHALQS

Sequence of GrxS14 (Arabidopsis thaliana) (Q84Y95 64-173): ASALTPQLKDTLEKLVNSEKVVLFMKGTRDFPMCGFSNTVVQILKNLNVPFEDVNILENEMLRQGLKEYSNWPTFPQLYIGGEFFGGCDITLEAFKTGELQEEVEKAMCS
Sequence of BolA1 (Q682I1 51-160): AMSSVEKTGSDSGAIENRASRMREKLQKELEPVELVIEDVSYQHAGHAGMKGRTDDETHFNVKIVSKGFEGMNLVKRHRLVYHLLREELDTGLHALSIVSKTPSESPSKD

Molecule	Kd [1] [µM]	Kd [2] [µM]	dH [2] [kcal/mol]	stoichiometry N [2] [sites]	Kd [3] [µM]	dH [3] [kcal/mol]	stoichiometry N [3] [sites]
BolA1 (from UniProt Q682I1)	7	–	–	–	–	–	–
E. coli BolA (natural protein, UniProt P0ABE2 1-105, looked up) MMIRERIEEKLRAAFQPVFLEVVDESYRHNVPAGSESHFKVVLVSDRFTGERFLNRHRMIYSTLAEELSTTVHALALHTYTIKEWEGLQDTVFASPPCRGAGSIA	–	4.6 ± 0.9	-3.1 ± 0.1	0.97 ± 0.03	–	–	–
S. cerevisiae Fra2 (natural protein, UniProt P53082 1-120, looked up) MTGERIEKVKINDEFAKSHFLTTQWRETKRQRHYKMPVTEQGLRERIESAIPQVYHIIVTDLSYGCGQSFDIVVVSDFFQGKSKLMRSRAVNKAVKEELQEIHAFSCKCYTEEEWSKIVV	–	–	–	–	20.8 ± 6.6	-10.1 ± 5.4	0.4 ± 0.19
E. coli BolA-like protein IbaG (natural protein, UniProt P0A9W6 1-84, looked up) MENNEIQSVLMNALSLQEVHVSGDGSHFQVIAVGELFDGMSRVKKQQTVYGPLMEYIADNRIHAVSIKAYTPAEWARDRKLNGF	–	3.4 ± 0.1	-5.9 ± 0.1	0.7 ± 0.01	–	–	–
